Source: US20250382372A1 (OXFORD UNIVERSITY INNOVATION, published 2025)
Numbering of substitutions follows the chain as printed.

B1: 77A (VR11851) (antibody, V domains shown)
VH: QSVEESGGRLVTPGTPLTLTCTVSGFSLSSYAMSWVRQAPGKGLEWIGIISSSGTTYYASWAKGRFTISKTSTTVDLKITSPTTEDTATYFCARVDYYSSGWGGLWGPGTLVTVSS
VL: AVEMTQTPASMSAAVGGTVTIKCQASEDIYSNLAWYQQKPGQPPKLLIYGASTLASGVPSRFKGSGSGTEYTLTISGVQCDDAATYYCQCTYDTSSYGNTFGGGTEMVVE
notes: V regions were 'cloned as either rabbit or mouse full length antibodies'; also called OX77a; antibody 77a
B2: 111 (VR12113) (antibody, V domains shown)
VH: QSVEESGGRLVTPGTPLTLTCTASGFSLSTYAMSWVRQAPGKGLEWIGIISSSGSTYYASWAKGRFTISKTSTTVDLKITSPTTEDTATYFCARETWYWLDLWGQGTLVTVSS
VL: B1 VL with M11V, K22N, T91A, T94S, N99T, T100P, M107V, E110K
notes: also called OX111
B3: OX116 scFv (scFv)
scFv: DAQSVEESGGRLVTPGTPLTLTCTVSGFSLSNYAMSWVRQAPGKGLEWIGIIYTTGFTYYASWVKGRFTISKTSTTVDLKITSPTTEDTATYFCARGLATYVSPPTRLDLWGQGTLVTVSSGGGGSGGGGSGGGGSAQVLTQTPSPVSAAVGGTVTINCQASQSIYNSKNLAWYQQKPGQPPKLLIYSASTLASGVPSRFKGSGSGTQFTLTISDLESDDAATYYCQGEFSCSSVDCATFGGGTEVVVKSGLEVLFQGPGSGLNDIFEAQKIEWHEHHHHHH
modifications: biotinylated on the C-terminal biotinylation tag (SPR only)
notes: The entry holds the leader, VH, linker, VL, 3C site, BirA tag and His tag; For crystallisation the BirA and His tags were cut off with 3C protease; also called OX116 Ab fragment
B4: 116 (VR12117) (antibody, V domains shown)
VH: QSVEESGGRLVTPGTPLTLTCTVSGFSLSNYAMSWVRQAPGKGLEWIGIIYTTGFTYYASWVKGRFTISKTSTTVDLKITSPTTEDTATYFCARGLATYVSPPTRLDLWGQGTLVTVSS
VL: AQVLTQTPSPVSAAVGGTVTINCQASQSIYNSKNLAWYQQKPGQPPKLLIYSASTLASGVPSRFKGSGSGTQFTLTISDLECDDAATYYCQGEFSCSSVDCATFGGGTEVVVK
notes: also called OX116
B5: OX16 scFv (scFv)
scFv: DAEVQLVESGGGLVKPGGSLKLSCAASGFTFSNYAMSWVRQTPEKRLEWVAAINSNGGSAYYPDTVKDRFTISRDNAKNTLYLQMSSLRSEDTALYYCARRFYYDYGWFAYWGQGTLVTVSSGGGGSGGGGSGGGGSDIVLTQSPASLSASVGETVTITCRASENIDSYLAWYQQKQGKSPQLLVYAATLLADGVPSRFSGSGSGTQYSLKINSLQSEDVARYYCQHYYSSPWTFGGGTKLEIKSGLEVLFQGPGSGLNDIFEAQKIEWHEHHHHHH
modifications: biotinylated on the C-terminal biotinylation tag (SPR only)
notes: The entry holds the leader, VH, Gly-Ser linker, VL, 3C site, BirA tag and His tag; For crystallisation the BirA and His tags were cut off with 3C protease; also called 16 ScFv full; single chain variable construct of OX16
B6: 110 (VR12112) (antibody, V domains shown)
VH: QSVEESGGRLVTPGTPLTLTCTVSGFSLSSYAMIWVRQAPGKGLEWIGIINSSDNTHYATWAKGRFTISKTSTTVDLKITSPTTEDTATYFCARDPYDYGYGWYFDLWGPGTLVTVSS
VL: AQVLTQTPSPVSAAVGGTVTINCQASQSVFNNKNLAWYQQKPGQPPKLLIYKASTLASGVSSRFKGSGSGTQFALTISGVQCDDAATYYCQGEFSCSSTDCVTFGGGTEVVVK
notes: V regions were 'cloned as either rabbit or mouse full length antibodies'; also called OX110; antibody 110

Experiments:
[1] = target: human CD1a expressed on cells (human) (UniProt P06126); experiment: flow cytometry, ear skin cells of a CD1a transgenic mouse given antibody 116 (100 ug i.p. on days 0, 2 and 4; panel 'CD1a : OX116'), stained on day 5 with anti-CD1a SK9
[2] = target: human CD1a expressed on cells (human) (UniProt P06126); experiment: flow cytometry, ear skin cells of a CD1a transgenic mouse given isotype control (panel 'CD1a : iso'), stained with anti-CD1a SK9; cell population not named on the sheet
[3] = target: human CD1a expressed on cells (human) (UniProt P06126); experiment: flow cytometry, ear skin cells of a CD1a transgenic mouse given antibody 116 (100 ug i.p. on days 0, 2 and 4; row 'CD1a : OX116'), stained on day 5 with anti-CD1a HI149; the cloud of cells lies at the lower edge of the gate
[4] = target: human CD1a expressed on cells (human) (UniProt P06126); experiment: flow cytometry, ear skin cells of a CD1a transgenic mouse given isotype control (row 'CD1a : iso'), stained with anti-CD1a HI149; cell population not named on the sheet
[5] = target: Cynomolgus monkey CD1a expressed on HEK-293 cells (Cynomolgus monkey); experiment: flow, HEK-293, Ab 1 µg/ml
[6] = target: Cynomolgus monkey CD1a protein (Cynomolgus monkey); experiment: ELISA, Ab 0.1 µg/ml
[7] = target: Cynomolgus monkey CD1a protein (Cynomolgus monkey); experiment: ELISA, Ab 10 µg/ml
[8] = target: Cynomolgus monkey CD1a protein (Cynomolgus monkey); experiment: ELISA, Ab 1 µg/ml
[9] = target: T1, human CD1c expressed on HEK-293 cells (human, UniProt P29017 18-333; P61769 21-119); experiment: flow cytometry, HEK-293
T1 construct: whole, on cells; also called HEK - CD1c
Protocol: (§1) CD1a-specific antibodies were identified by flow cytometry. Binding to proteins expressed on HEK, CIR and MOLT4 cell lines was assessed. […] The C1R-CD1a, C1R-empty vector and MOLT4 cell lines were washed in 1×PBS on the day required. All cell lines were counted and resuspended in 1×PBS and then stained for 30 minutes at 37° C. using the DiI or DiO cellular stains (Invitrogen). Cells were washed with flow cytometry buffer (1% bovine serum albumin, 2 mM EDTA and 0.1% sodium azide in PBS) before mixing 2 DiI-stained and DiO-stained populations together. The cells (20 μl/well) were then added to dilutions of antibody sample (B cell culture supernatant, TAP supernatant, clone supernatant, purified antibody solution) (20 μl/well) and incubated for 1 hour at 4° C. in a flow cytometry assay plate, before being washed with flow cytometry buffer. 10 μl/well of Alexafluor647-conjugated goat anti-species IgG Fc-specific F(ab′)2 fragment (Jackson ImmunoResearch), diluted 1:2500 in flow cytometry buffer, was added and incubated at 4° C. for 30 minutes, followed by washing with wash buffer. The fluorescence intensity was then measured on an iQue screener PLUS.
(§2) HEK-293 cells were transiently transfected with human CD1a, CD1b, CD1c or CD1d and co-transfected with human β2M.

[10] = target: T2, human CD1b expressed on HEK-293 cells (human, UniProt P29016 18-333; P61769 21-119); experiment: flow cytometry, HEK-293
T2 construct: whole, on cells; also called HEK - CD1b
Protocol: as §1, §2

[11] = target: T3, human CD1d expressed on HEK-293 cells (human, UniProt P15813 20-335; P61769 21-119); experiment: flow cytometry, HEK-293
T3 construct: whole, on cells; also called HEK - CD1d
Protocol: as §1, §2

[12] = target: Cynomolgus monkey CD1a expressed on HEK-293 cells (Cynomolgus monkey); experiment: flow, HEK-293, Ab 0.1 µg/ml
[13] = target: Cynomolgus monkey CD1a protein (Cynomolgus monkey); experiment: ELISA, Ab 0.01 µg/ml
[14] = target: Cynomolgus monkey CD1a expressed on HEK-293 cells (Cynomolgus monkey); experiment: flow, HEK-293, Ab 10 µg/ml
[15] = target: Cynomolgus monkey CD1a expressed on HEK-293 cells (Cynomolgus monkey); experiment: flow, HEK-293, Ab 0.01 µg/ml
[16] = target: T4, Human CD1a/beta2m heterodimer (HEK293S, deglycosylated, zippers and tags cleaved) (human, UniProt P61769 21-119); experiment: SPR (Biacore 3000): biotinylated OX116 scFv on a streptavidin chip, CD1a-SM24:1 (CD1a loaded with sphingomyelin 24:1) injected up to 1000 nM; 1:1 specific binding fit; unit from the legend paragraph 293
T4 construct: Protein of the crystal structures and of the Biacore 3000 SPR experiments; Carries endogenous lipids (CD1a-endo) or a loaded lipid (named under assay); also called CD1a-endo; CD1a loaded with a specific lipid
Protocol: (§3) Depending on the experiment biotinylated scFv molecules were coupled onto the chip surface until a total of 150 or 1000 response units per flow cell were achieved. […] Each lipid was solubilised up to 5-10 mM in 20 mM Tris pH8, 150 mM NaCl and 0.5% CHAPS. CD1a-endo was incubated at room temperature overnight with 15-40× molar excess of lipid. The mixture was subsequently purified by anion exchange chromatography using a MonoQ column (GE Healthcare). Fractions corresponding to lipid-loaded CD1a were pooled together and up-concentrated to 5 μM. Serial dilutions of CD1a up to a maximum concentration of 1 μM were injected for 60 s at 25 C in 20 mM Tris pH8, 150 mM NaCl buffer. The dissociation time between the injections was between 5 minutes up to 1 h. […] Each injection cycle consisted of a 60 s injection of 1 μM CD1a alone immediately followed by increasing concentrations of TCRs (0 to 50 μM) supplemented with 100 nM CD1a to prevent further dissociation of CD1a from the coupled Ab fragment. The runs were performed at 25 C in 20 mM Tris pH8, 150 mM NaCl, 0.5% BSA buffer. In all SPR experiments relative binding response was calculated by subtracting the non-specific response on a reference cell, where an unrelated protein was coupled. The binding curves were obtained by fitting the measured response to a 1:1 specific binding model in GraphPad.

[17] = target: T4, Human CD1a/beta2m heterodimer (HEK293S, …); experiment: SPR (Biacore 3000): biotinylated OX116 scFv on a streptavidin chip, CD1a-GD3 (CD1a loaded with GD3 ganglioside) injected up to 1000 nM; 1:1 specific binding fit; unit from the legend paragraph 293
Protocol: as §3

[18] = target: T4, Human CD1a/beta2m heterodimer (HEK293S, …); experiment: SPR (Biacore 3000): biotinylated OX116 scFv on a streptavidin chip, CD1a-LPC (CD1a loaded with lysophosphatidylcholine) injected up to 1000 nM; 1:1 specific binding fit; unit from the legend paragraph 293
Protocol: as §3

[19] = target: T4, Human CD1a/beta2m heterodimer (HEK293S, …); experiment: SPR (Biacore 3000): biotinylated OX116 scFv on a streptavidin chip, CD1a-endo (CD1a with endogenous lipids) injected up to 1000 nM; 1:1 specific binding fit; unit from the legend paragraph 293
Protocol: as §3

[20] = target: T4, Human CD1a/beta2m heterodimer (HEK293S, …); experiment: SPR (Biacore 3000): biotinylated OX16 scFv on a streptavidin chip, CD1a-LPC (CD1a loaded with lysophosphatidylcholine) injected up to 1000 nM; 1:1 specific binding fit; unit from the legend paragraph 293
Protocol: as §3

[21] = target: T4, Human CD1a/beta2m heterodimer (HEK293S, …); experiment: SPR (Biacore 3000): biotinylated OX16 scFv on a streptavidin chip, CD1a-endo (CD1a with endogenous lipids) injected up to 1000 nM; response fitted to a 1:1 specific binding model; unit from the legend paragraph 293
Protocol: as §3

[22] = target: T4, Human CD1a/beta2m heterodimer (HEK293S, …); experiment: SPR (Biacore 3000): biotinylated OX16 scFv on a streptavidin chip, CD1a-SM24:1 (CD1a loaded with sphingomyelin 24:1) injected up to 1000 nM; 1:1 specific binding fit; unit from the legend paragraph 293
Protocol: as §3

[23] = target: T4, Human CD1a/beta2m heterodimer (HEK293S, …); experiment: SPR (Biacore 3000): biotinylated OX16 scFv on a streptavidin chip, CD1a-GD3 (CD1a loaded with GD3 ganglioside) injected up to 1000 nM; 1:1 specific binding fit; unit from the legend paragraph 293
Protocol: as §3

| Molecule | Fluorescence Intensity Geomean (normalized to background) (fold over background) [5] | Optical Density (OD) [6] | Optical Density (OD) [7] | Optical Density (OD) [8] | binding result [9] | binding result [10] | binding result [11] | Fluorescence Intensity Geomean (normalized to background) (fold over background) [12] | Optical Density (OD) [13] | Fluorescence Intensity Geomean (normalized to background) (fold over background) [14] | Fluorescence Intensity Geomean (normalized to background) (fold over background) [15] | other results |
| --- | --- | --- | --- | --- | --- | --- | --- | --- | --- | --- | --- | --- |
| SK9 (antibody) | – | – | – | – | – | – | – | – | – | – | – | CD1a+ (gate frequency, percent of plotted cells; unit not given) [1]: 87.4; CD1a+ (gate frequency, percent of plotted cells; unit not given) [2]: 84.9 |
| HI149 (antibody) | – | – | – | – | – | – | – | – | – | – | – | CD1a+ (gate frequency, percent of plotted cells; unit not given) [3]: 46.6; CD1a+ (gate frequency, percent of plotted cells; unit not given) [4]: 82.2 |
| B1 | 10.6 | 0.24 OD | 0.52 OD | 0.43 OD | no binding (tested: 100 µg/ml) | no binding (tested: 100 µg/ml) | no binding (tested: 100 µg/ml) | 5.7 | 0.1 OD | 1.4 | 1.7 | – |
| B2 | 12.9 | 0.66 OD | 0.79 OD | 0.69 OD | no binding (tested: 100 µg/ml) | no binding (tested: 100 µg/ml) | no binding (tested: 100 µg/ml) | 25.8 | 0.48 OD | 16.3 | 8.9 | – |
| B3 | – | – | – | – | – | – | – | – | – | – | – | Kd [16]: 529 nM; Kd [17]: 329 nM; Kd [18]: 1520 nM; Kd [19]: 483 nM |
| B4 | 0.8 | 0.07 OD | 0.16 OD | 0.14 OD | no binding (tested: 100 µg/ml) | no binding (tested: 100 µg/ml) | no binding (tested: 100 µg/ml) | 1 | 0.07 OD | 1.7 | 1 | – |
| B5 | – | – | – | – | – | – | – | – | – | – | – | Kd [20]: 1010 nM; Kd [21]: 476 nM; Kd [22]: 860 nM; Kd [23]: 1270 nM |
| B6 | – | 0.53 OD | 0.86 OD | 0.94 OD | no binding (tested: 100 µg/ml) | no binding (tested: 100 µg/ml) | no binding (tested: 100 µg/ml) | 3.3 | 0.22 OD | 13.6 | 1.2 | – |
